Measured values from patent US12269859B2, “Synthetic immune receptors and methods of use thereof” (Angeles Therapeutics, Inc., priority 2016, dated 2025).

Tested on: RAJI cells
Assay: RAJI xenograft model of lymphoma in NSG mice (survival)
Format: in vivo
Settings: 200 ng/mouse intraperitoneal three times, with SIR-T cells
Method: In vivo efficacy of SIR targeting CD19. […] SIR constructs and Gluc-PAC-G07 control construct encoding non-secretory form of Guassia Luciferase. Approximately half the cells were selected with puromycin while the other half was expanded without puromycin selection. NSG mice (Jackson Lab) were sub-lethally irradiated at a dose of 175 cGy. Approximately 24 hours post irradiation (day 2), mice were injected with 2.5×10^4 RAJI cells via tail-vein. […] Control mice (n=5) received no T cells or uninfected T cells. Mice were given human IL2 (400 IU intraperitoneally) on alternate days till the death of all mice in control group.
Approximately half the cells were selected with puromycin while the other half was expanded without puromycin selection. NSG mice (Jackson Lab) were sub-lethally irradiated at a dose of 175 cGy. Approximately 24 hours post irradiation (day 2), mice were injected with 2.5×10^4 RAJI cells via tail-vein. […] Control mice (n=5) received no T cells or uninfected T cells. Mice were given human IL2 (400 IU intraperitoneally) on alternate days till the death of all mice in control group.
SIR construct. NSG mice (Jackson Lab) were sub-lethally irradiated at a dose of 175 cGy. Approximately 24 hours post irradiation (day 2), mice were injected with 2.5×10^4 RAJI cells via tail-vein. […] SIR encoding lentivirus. […]

B1: IL-7: exogenous recombinant human IL-7 (protein, UniProt P13232 26-177, looked up)
Interleukin-7: DCDIEGKDGKQYESVLMVSIDQLLDSMKEIGSNCLNNEFNFFKRHICDANKEGMFLFRAARKLRQFLKMNSTGDFDLHLLKVSEGTTILLNCTGQVKGRKPAALGEAQPTKSLEENKSLKEQKKLNDLCFLKRLLQEIKTCWNKILMGTKEH
  tumor rejection and survival (in words): reject their tumor and survive longer
